Target: TCR beta proteins on normal splenic CD4+ T cells (mouse (endogenous in splenic CD4+ T cells))
Assay: flow cytometry on cells

For “CD3 epsilon (from UniProt P22646 22-189) (natural protein)”, the stoichiometry N (CD3e per TCR beta) was 2.
